4 substances from patent US20180217151A1 can be followed below.

The target in assay [1] is recombinant CD4 antigen (not stated (the Fab labels human PBMCs)) (UniProt P01730). As to the kind of experiment: SPR (Biacore), recombinant antigen (extracellular domain) immobilized by amine coupling, Fab as analyte, 1:1 binding mass transfer model. (In general: SPR reads the build-up and loss of mass on a sensor chip optically.)
Assay [2] addresses CD4 antigen on human PBMCs (human) (UniProt P01730). As to the kind of experiment: flow cytometry, human PBMCs, biotinylated Fab, SA-APC, before washing; gate at APC about 5e1; the same gate in control C prints 0,06%-#. On the technique in general: In flow cytometry, cells or beads pass a laser one at a time.
The target is the same in assay [3]. The experiment in a line: flow cytometry, human PBMCs, biotinylated Fab 1 µg/mL, SA-APC, before washing; median of control (background) 0.3.
For assay [4] the target is unchanged. As to the kind of experiment: flow cytometry, human PBMCs, biotinylated Fab 1 µg/mL, SA-APC, after five washing steps; median of control (background) 0.3; enables reversible labeling: yes.
Assay [5] has the same target. As to the kind of experiment: flow cytometry on human PBMCs, Fab multimerized with anti-Biotin-PE, before disruption.
Assay [6] has the same target. The experiment in a line: flow cytometry, human PBMCs, biotinylated Fab 1 µg/mL, SA-APC, after five washing steps; enables reversible labeling: yes.
The target is the same in assay [7]. The experiment in a line: flow cytometry on human PBMCs, after 2 mM biotin and one washing step.
Assay [8] concerns the target recombinant CD14 antigen (not stated (the Fab labels human PBMCs)) (UniProt P08571). The experiment in a line: SPR (Biacore), recombinant antigen (extracellular domain) immobilized by amine coupling, Fab as analyte, 1:1 binding mass transfer model.
Assay [9] deals with CD14 antigen on human PBMCs (human) (UniProt P08571). The experiment in a line: flow cytometry, human PBMCs, biotinylated Fab 1 µg/mL, SA-APC, after five washing steps; median of control (background) 0.25; enables reversible labeling: yes.
Assay [10] has the same target. The experiment in a line: flow cytometry, human PBMCs, biotinylated Fab 1 µg/mL, SA-APC, before washing; median of control (background) 0.25.
For assay [11] the target is unchanged. As to the kind of experiment: flow cytometry, human PBMCs, biotinylated Fab 1 µg/mL, SA-APC, after five washing steps; enables reversible labeling: yes.
Assay [12] deals with recombinant CD27 antigen (not stated (the Fab labels human PBMCs)) (UniProt P26842). As to the kind of experiment: SPR (Biacore), recombinant antigen (extracellular domain) immobilized by amine coupling, Fab as analyte, 1:1 binding mass transfer model.
The target in assay [13] is CD27 antigen on human PBMCs (human) (UniProt P26842). As to the kind of experiment: flow cytometry, human PBMCs, biotinylated Fab, SA-APC, after five washing steps; same gate above APC about 1.
The target is the same in assay [14]. As to the kind of experiment: flow cytometry, human PBMCs, biotinylated Fab 1 µg/mL, SA-APC, after five washing steps; median of control (background) 0.2; enables reversible labeling: no.
Assay [15] shares this target. The experiment in a line: flow cytometry, human PBMCs, biotinylated Fab, SA-APC, before washing; gate above APC about 1.
The target is the same in assay [16]. The experiment in a line: flow cytometry, human PBMCs, biotinylated Fab 1 µg/mL, SA-APC, after five washing steps; enables reversible labeling: no.
Assay [17] shares this target. As to the kind of experiment: flow cytometry, human PBMCs, biotinylated Fab 1 µg/mL, SA-APC, before washing; median of control (background) 0.2.
In assay [18] the target is recombinant CD62L antigen (not stated (the Fab labels human PBMCs)) (UniProt P14151). As to the kind of experiment: SPR (Biacore), recombinant antigen (extracellular domain) immobilized by amine coupling, Fab as analyte, 1:1 binding mass transfer model.
For assay [19], the target named is CD62L antigen on human PBMCs (human) (UniProt P14151). The experiment in a line: flow cytometry, human PBMCs, biotinylated Fab 1 µg/mL, SA-APC, after five washing steps; median of control (background) 0.2; enables reversible labeling: yes.
Assay [20] shares this target. The experiment in a line: flow cytometry, human PBMCs, biotinylated Fab 1 µg/mL, SA-APC, before washing; median of control (background) 0.2.
Assay [21] has the same target. The experiment in a line: flow cytometry, human PBMCs, biotinylated Fab 1 µg/mL, SA-APC, after five washing steps; enables reversible labeling: yes.

Chain of CD14 antigen on human PBMCs (human) (P08571 20-345): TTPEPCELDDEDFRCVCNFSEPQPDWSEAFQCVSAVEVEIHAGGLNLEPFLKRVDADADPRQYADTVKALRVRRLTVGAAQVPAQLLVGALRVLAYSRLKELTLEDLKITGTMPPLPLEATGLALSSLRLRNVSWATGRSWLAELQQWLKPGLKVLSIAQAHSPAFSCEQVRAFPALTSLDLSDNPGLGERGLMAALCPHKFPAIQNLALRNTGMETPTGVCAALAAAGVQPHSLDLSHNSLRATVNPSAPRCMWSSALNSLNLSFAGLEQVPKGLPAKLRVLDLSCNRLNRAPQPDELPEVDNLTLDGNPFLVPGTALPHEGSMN
Chain of recombinant CD62L antigen (not stated (the Fab labels human PBMCs)) (P14151 39-332): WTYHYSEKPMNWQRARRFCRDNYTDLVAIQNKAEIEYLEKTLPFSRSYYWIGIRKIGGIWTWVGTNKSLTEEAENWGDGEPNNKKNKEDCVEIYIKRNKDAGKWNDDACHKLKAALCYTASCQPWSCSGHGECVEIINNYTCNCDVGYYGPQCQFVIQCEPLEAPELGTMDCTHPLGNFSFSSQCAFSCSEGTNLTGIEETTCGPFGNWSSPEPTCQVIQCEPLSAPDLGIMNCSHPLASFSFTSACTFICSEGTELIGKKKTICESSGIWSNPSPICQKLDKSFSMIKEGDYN
Chain of CD27 antigen on human PBMCs (human) (P26842 20-260): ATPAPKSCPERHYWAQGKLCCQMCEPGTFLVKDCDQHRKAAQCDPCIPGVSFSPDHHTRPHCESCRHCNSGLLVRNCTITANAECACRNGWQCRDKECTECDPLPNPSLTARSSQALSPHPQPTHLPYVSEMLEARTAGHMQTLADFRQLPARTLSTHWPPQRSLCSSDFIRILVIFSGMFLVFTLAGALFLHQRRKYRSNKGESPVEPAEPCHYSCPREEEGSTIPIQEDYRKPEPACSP
Chain of CD62L antigen on human PBMCs (human) (P14151 39-372): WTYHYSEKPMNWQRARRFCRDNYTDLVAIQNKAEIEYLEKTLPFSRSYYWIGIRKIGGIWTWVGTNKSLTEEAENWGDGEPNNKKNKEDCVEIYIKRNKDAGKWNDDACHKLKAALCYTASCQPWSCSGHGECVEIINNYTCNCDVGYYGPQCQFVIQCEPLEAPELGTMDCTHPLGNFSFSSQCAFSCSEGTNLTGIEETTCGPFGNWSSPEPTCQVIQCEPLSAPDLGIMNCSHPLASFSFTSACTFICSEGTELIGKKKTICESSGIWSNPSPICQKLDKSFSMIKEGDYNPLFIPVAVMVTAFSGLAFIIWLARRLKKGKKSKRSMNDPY
Chain of recombinant CD14 antigen (not stated (the Fab labels human PBMCs)) (P08571 20-352 limits assumed): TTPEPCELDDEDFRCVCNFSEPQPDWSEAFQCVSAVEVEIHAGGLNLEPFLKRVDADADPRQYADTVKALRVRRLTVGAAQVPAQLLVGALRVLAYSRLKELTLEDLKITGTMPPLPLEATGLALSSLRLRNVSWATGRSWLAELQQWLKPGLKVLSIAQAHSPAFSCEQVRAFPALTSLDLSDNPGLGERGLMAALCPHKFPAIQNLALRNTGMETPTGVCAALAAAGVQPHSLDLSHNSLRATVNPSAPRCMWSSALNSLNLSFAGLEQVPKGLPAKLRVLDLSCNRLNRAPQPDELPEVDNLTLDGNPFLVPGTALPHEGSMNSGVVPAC
Chain of recombinant CD27 antigen (not stated (the Fab labels human PBMCs)) (P26842 20-191): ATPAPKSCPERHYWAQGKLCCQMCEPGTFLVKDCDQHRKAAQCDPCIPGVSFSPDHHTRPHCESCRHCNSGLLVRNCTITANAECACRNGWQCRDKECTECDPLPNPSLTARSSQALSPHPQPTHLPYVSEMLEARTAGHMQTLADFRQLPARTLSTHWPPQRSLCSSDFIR

Broadly, the Kd is the concentration at which binding is half-saturated. What is called koff is a measure of how fast the partners let go of each other. Broadly, the kon is the second-order rate constant of association. M-T466 pFab: in [1], the Kd is 16 nM, the koff is 0.016 s⁻¹ and the kon came out at 1e+06 M⁻¹ s⁻¹. In [2], the percent of cells in gate P5, column L is 26.9%. In assay [3], the median value (i) was 49. The median value after Fab removal (ii) in assay [4] worked out at 0.37. In addition, in [5], the median value of the PE signal, labeled was determined as 16.4. Also, in [6], the % median value of the detected label after Fab removal (before = 100%) is 0.8%. Besides, the median value of the PE signal after disruption with free biotin and washing in assay [7] came out at 0.2.
In the case of TUK4 pFab, in assay [8], the Kd was found to be 330 nM, the koff came to 0.24 s⁻¹ and the kon came to 730000 M⁻¹ s⁻¹. In assay [9], this substance showed a median value after Fab removal (ii) of 1. Besides, the median value (i) in [10] was 152. The % median value of the detected label after Fab removal (before = 100%) in assay [11] was found to be 0.7%.
On to M-T271 pFab, for which, in [12], the equilibrium dissociation constant (Kd) stood at 0.96 nM, the koff is 0.00026 s⁻¹ and the kon turned out to be 270000 M⁻¹ s⁻¹. Besides, the percent of cells in gate P1\P2\P3, column LR in assay [13] was 40.2%. In [14], the median value after Fab removal (ii) came out at 6.3. In assay [15], this substance had a percent of cells in gate P1\P2\P3, column L of 38.2%. The substance also registered a % median value of the detected label after Fab removal (before = 100%) in assay [16] of 64%. Moreover, in assay [17], the median value (i) was 9.9.
For the substance 145/15 pFab, in [18], the Kd is 110 nM, the koff turned out to be 0.068 s⁻¹ and the kon came out at 640000 M⁻¹ s⁻¹. Further, the median value after Fab removal (ii) in [19] was 0.82. The substance further displayed a median value (i) in [20] of 35. The same substance gave a % median value of the detected label after Fab removal (before = 100%) in [21] of 2.3%.
